The target in one assay is T1, α2-纤溶酶抑制剂(α2-AP) (UniProt P08697 40-491, limits assumed).
T1 construct: also called α2-antiplasmin; 游离态的α2-AP
T1 sequence (looked up): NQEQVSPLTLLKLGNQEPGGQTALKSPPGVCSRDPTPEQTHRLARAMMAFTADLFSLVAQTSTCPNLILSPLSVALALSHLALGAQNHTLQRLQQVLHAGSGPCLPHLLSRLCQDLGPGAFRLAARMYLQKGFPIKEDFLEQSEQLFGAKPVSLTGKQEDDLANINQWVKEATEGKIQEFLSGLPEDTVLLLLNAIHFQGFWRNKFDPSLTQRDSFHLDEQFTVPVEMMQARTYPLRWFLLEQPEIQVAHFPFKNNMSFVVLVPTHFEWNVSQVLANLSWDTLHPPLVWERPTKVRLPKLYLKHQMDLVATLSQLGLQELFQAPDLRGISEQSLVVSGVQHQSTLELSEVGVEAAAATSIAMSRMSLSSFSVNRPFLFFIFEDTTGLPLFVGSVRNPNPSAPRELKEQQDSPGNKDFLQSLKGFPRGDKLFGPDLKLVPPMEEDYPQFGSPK
Nature of the assay: summing-up of the examples (ELISA specificity, Example 4; table 2 not shown). (In an ELISA, binding on a coated surface is turned into a signal by an enzyme label.)

For the next assay, the target named is T2, 纤溶酶原(Plg) (UniProt P00747 20-810).
T2 construct: Free precursor, used as coating antigen in ELISA; also called Plasminogen; 游离态的Plg
The assay is described as above.

For a further assay, the target named is T3, 纤溶酶-α2纤溶酶抑制剂复合物(PIC) (UniProt P00747 97-810; P08697 40-491, limits assumed).
T3 construct: also called PIC抗原; PIC复合物
Nature of the assay: SPR (BIAcore 3000), antibody captured by goat anti-mouse IgG Fc on CM5, PIC as analyte. On the technique in general: In SPR one partner is held on a chip, and binding of the other changes the refractive index at the surface.

T3 sequence (P00747 97-810 limits assumed, one chain of several): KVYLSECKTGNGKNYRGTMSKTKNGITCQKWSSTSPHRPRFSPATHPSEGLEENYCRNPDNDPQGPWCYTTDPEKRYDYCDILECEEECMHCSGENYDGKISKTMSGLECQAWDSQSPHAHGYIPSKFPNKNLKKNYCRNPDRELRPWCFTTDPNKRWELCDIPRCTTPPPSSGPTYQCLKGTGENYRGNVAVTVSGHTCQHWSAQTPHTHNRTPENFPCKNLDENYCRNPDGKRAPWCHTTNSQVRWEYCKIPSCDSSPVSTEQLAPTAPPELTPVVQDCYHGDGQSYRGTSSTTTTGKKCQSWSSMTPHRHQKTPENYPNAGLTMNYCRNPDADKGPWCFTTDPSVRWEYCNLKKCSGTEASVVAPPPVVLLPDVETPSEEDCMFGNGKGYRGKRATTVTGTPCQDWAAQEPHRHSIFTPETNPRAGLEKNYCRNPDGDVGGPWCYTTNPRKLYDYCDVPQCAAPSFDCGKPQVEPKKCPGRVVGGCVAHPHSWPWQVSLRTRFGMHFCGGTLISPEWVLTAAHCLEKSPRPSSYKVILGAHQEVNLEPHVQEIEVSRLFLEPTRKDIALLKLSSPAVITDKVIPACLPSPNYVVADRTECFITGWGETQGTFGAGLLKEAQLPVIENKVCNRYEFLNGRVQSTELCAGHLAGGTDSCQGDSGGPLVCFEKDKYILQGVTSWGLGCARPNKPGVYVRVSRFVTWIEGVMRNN
T2 sequence (P00747 20-810 limits assumed): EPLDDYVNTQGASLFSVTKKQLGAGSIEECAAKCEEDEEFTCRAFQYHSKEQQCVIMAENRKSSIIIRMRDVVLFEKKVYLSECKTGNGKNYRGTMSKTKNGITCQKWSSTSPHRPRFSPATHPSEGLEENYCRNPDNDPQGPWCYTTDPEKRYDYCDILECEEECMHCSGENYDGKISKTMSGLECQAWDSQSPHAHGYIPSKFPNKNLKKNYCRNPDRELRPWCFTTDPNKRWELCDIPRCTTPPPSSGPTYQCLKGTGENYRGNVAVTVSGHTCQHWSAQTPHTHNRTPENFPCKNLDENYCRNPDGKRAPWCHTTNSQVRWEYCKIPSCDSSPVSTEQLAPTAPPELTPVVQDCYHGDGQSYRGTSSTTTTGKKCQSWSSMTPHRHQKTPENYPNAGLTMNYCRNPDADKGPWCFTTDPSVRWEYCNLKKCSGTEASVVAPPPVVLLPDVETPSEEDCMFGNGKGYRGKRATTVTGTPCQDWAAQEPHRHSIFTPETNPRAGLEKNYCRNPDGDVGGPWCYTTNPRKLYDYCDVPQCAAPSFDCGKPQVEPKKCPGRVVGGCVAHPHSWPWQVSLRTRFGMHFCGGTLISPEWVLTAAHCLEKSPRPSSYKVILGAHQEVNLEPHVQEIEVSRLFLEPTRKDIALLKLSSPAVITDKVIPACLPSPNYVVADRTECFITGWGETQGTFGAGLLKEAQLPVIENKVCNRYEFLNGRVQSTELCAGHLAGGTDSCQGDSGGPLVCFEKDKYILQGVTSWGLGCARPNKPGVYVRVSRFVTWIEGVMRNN

B1: PIC抗体(WT1) (antibody, mouse IgG1, kappa, V domains shown)
VH: QVQLQQSGPELVKPGASVKLSCKASGNAFSSSWMNWVKQRPGQGLEWIGRIYPGDGDTNYNGKFKGKATLTVDKSSSTVYMQLSSLTSVDSAVYFCGRGNPTTAYAMDYWGQGTSVTVSS
VL: DIVLTQSPASLAVSLGQRATLSCRASESVDSFGYSFMHWYQQNPGQPPKLLIYRASNLESGIPARFSGSGSRTDFTLTINPVEADDVATYFCQQTNEDPYTFGGGAKLEIKR
notes: that VL1/VH1 belong to 1C2B4 (WT1) follows from the order of naming, not from an explicit sentence; also called 1C2B4; PIC单抗(WT1)
A word on the Kd: it is the free concentration of one partner at which half of the binding sites on the other are occupied at equilibrium, for simple one-to-one binding. The koff is a measure of how fast the partners let go of each other. What is called kon is a measure of how fast the partners come together. Low values mean slow association, high ones fast association. B1: in the assay with α2-纤溶酶抑制剂(α2-AP), the binding result is reported as “no binding”. Also, the binding result with 纤溶酶原(Plg) is listed as “no binding”. For the same molecule, in the assay with 纤溶酶-α2纤溶酶抑制剂复合物(PIC), binding was put at a Kd of 1.29 nM, the koff was found to be 8.54e-05 s⁻¹ and the kon was 65900 M⁻¹ s⁻¹.

B2: PIC抗体(WT2) (antibody, mouse IgG1, kappa, V domains shown)
VH: QVQLQQPGAELVRPGASVKLSCKASGYTFTSSWMHWVKQRPEQGLEWIGYIDPYDSETHYNQKFKDKAILTVDKSSSTAYMQLSSLTSEDSAVYYCARGYDRSFDYWGQGTTLTVSS
VL: DIKMTQSPSSMFASLGERVTITCKASQDIKSFLNWYQQKPWRSPKTLIYYATSLADGVPSRFSGSGSGQDFSLTISSLESDDAATYYCLQHGESPFTFGGGTKLEIKR
notes: That VL2/VH2 belong to 5B3F6 (WT2) follows from the order of naming, not from an explicit sentence; also called 5B3F6; PIC单抗(WT2)
For B2, the binding result with α2-纤溶酶抑制剂(α2-AP) was “no binding”. Besides, the binding result in the assay with 纤溶酶原(Plg) is “no binding”. In addition, in the assay with 纤溶酶-α2纤溶酶抑制剂复合物(PIC), the Kd is 1.21 nM, the koff came out at 9.54e-05 s⁻¹ and the kon was 78900 M⁻¹ s⁻¹.
